Data as given in paper PMC11419001 (bioRxiv, 2024).

Molecular target: ribosomal protein uS10 of the stalled 70S ribosome (E. coli, UniProt P0A7R5 1-103)
Assay: cryo-EM structure

B1: HrpA (E. coli DExH-box RNA helicase), preparation for cryo-EM (enzyme)
chain: MTEQQKLTFTALQQRLDSLMLRDRLRFSRRLHGVKKVKNPDAQQAIFQEMAKEIDQAAGKVLLREAARPEITYPDNLPVSQKKQDILEAIRDHQVVIVAGETGSGKTTQLPKICMELGRGIKGLIGHTQPRRLAARTVANRIAEELKTEPGGCIGYKVRFSDHVSDNTMVKLMTDGILLAEIQQDRLLMQYDTIIIDEAHERSLNIDFLLGYLKELLPRRPDLKIIITSATIDPERFSRHFNNAPIIEVSGRTYPVEVRYRPIVEEADDTERDQLQAIFDAVDELSQESHGDILIFMSGEREIRDTADALNKLNLRHTEILPLYARLSNSEQNRVFQSHSGRRIVLATNVAETSLTVPGIKYVIDPGTARISRYSYRTKVQRLPIEPISQASANQRKGRCGRVSEGICIRLYSEDDFLSRPEFTDPEILRTNLASVILQMTALGLGDIAAFPFVEAPDKRNIQDGVRLLEELGAITTDEQASAYKLTPLGRQLSQLPVDPRLARMVLEAQKHGCVREAMIITSALSIQDPRERPMDKQQASDEKHRRFHDKESDFLAFVNLWNYLGEQQKALSSNAFRRLCRTDYLNYLRVREWQDIYTQLRQVVKELGIPVNSEPAEYREIHIALLTGLLSHIGMKDADKQEYTGARNARFSIFPGSGLFKKPPKWVMVAELVETSRLWGRIAARIDPEWVEPVAQHLIKRTYSEPHWERAQGAVMATEKVTVYGLPIVAARKVNYSQIDPALCRELFIRHALVEGDWQTRHAFFRENLKLRAEVEELEHKSRRRDILVDDETLFEFYDQRISHDVISARHFDSWWKKVSRETPDLLNFEKSMLIKEGAEKISKLDYPNFWHQGNLKLRLSYQFEPGADADGVTVHIPLPLLNQVEESGFEWQIPGLRRELVIALIKSLPKPVRRNFVPAPNYAEAFLGRVKPLELPLLDSLERELRRMTGVTVDREDWHWDQVPDHLKITFRVVDDKNKKLKEGRSLQDLKDALKGKVQETLSAVADDGIEQSGLHIWSFGQLPESYEQKRGNYKVKAWPALVDERDSVAIKLFDNPLEQKQAMWNGLRRLLLLNIPSPIKYLHEKLPNKAKLGLYFNPYGKVLELIDDCISCGVDKLIDANGGPVWTEEGFAALHEKVRAELNDTVVDIAKQVEQILTAVFNINKRLKGRVDMTMALGLSDIKAQMGGLVYRGFVTGNGFKRLGDTLRYLQAIEKRLEKLAVDPHRDRAQMLKVENVQQAWQQWINKLPPARREDEDVKEIRWMIEELRVSYFAQQLGTPYPISDKRILQAMEQISG
B1: binds.
